These results are taken from patent publication US20240116985A1, “STAPLED PEPTIDES AND METHODS THEREOF” (priority 2020, published 2024).

Starred links: 1 amine or outer side, 2 acyl side, 3 side chain; linkers in the order of their positions; H or OH if unused. Positions of bridges follow the written chain, without caps; N, C: chain ends. Non-standard residues stand in square brackets, D forms with d. Primed or numbered codes have the meaning given here. PyrS2″ = (S)-3-amino-1-((pent-4-en-1-yloxy)carbonyl)pyrrolidine-3-carboxylic acid (stapling residue), C=CCCCOC(=O)N1CC[C@@](N[*:1])(C(=O)[*:2])C1; B5(4) = 2,2-bis(4-pentenyl)glycine = 2-amino-2-(pent-4-en-1-yl)hept-6-enoic acid (stitching residue), C=CCCCC(CCCC=C)(N[*:1])C(=O)[*:2]; B5(5) = 2,2-bis(4-pentenyl)glycine, 2-amino-2-(pent-4-en-1-yl)hept-6-enoic acid (stitching residue), C=CCCCC(CCCC=C)(N[*:1])C(=O)[*:2]; PyrS2 = (S)-3-amino-1-((pent-4-en-1-yloxy)carbonyl)pyrrolidine-3-carboxylic acid, C=CCCCOC(=O)N1CC[C@@](N[*:1])(C(=O)[*:2])C1; B5(3) = 2,2-bis(4-pentenyl)glycine (stitching residue), C=CCCCC(CCCC=C)(N[*:1])C(=O)[*:2]; B5 = 2-amino-2-(pent-4-en-1-yl)hept-6-enoic acid, C=CCCCC(CCCC=C)(N[*:1])C(=O)[*:2]; RbGlu = 3-aminopentanedioic acid, R/S prefix not explained; SbGlu = 3-aminopentanedioic acid, R/S prefix not explained; Trp(5-F) = N[C@@H](Cc1c[nH]c2ccc(F)cc12)C(=O)O; Trp(1-Me) = Cn1cc(C[C@H](N)C(=O)O)c2ccccc21; Phe(2-Cl) = N[C@@H](Cc1ccccc1Cl)C(=O)O; 1Nal = N[C@@H](Cc1cccc2ccccc12)C(=O)O; Bta = N[C@@H](Cc1csc2ccccc12)C(=O)O; αAllylPro = C=CC[C@@]1(C(=O)O)CCCN1; tBuAla = CC(C)(C)C[C@H](N)C(=O)O; 3Thi = N[C@@H](Cc1ccsc1)C(=O)O; Cha = N[C@@H](CC1CCCCC1)C(=O)O; S8 = C=CCCCCCC[C@](C)(N)C(=O)O; Thr(ol) = C[C@@H](O)[C@H](N)CO; Phe(ol) = N[C@H](CO)Cc1ccccc1 Where only a bound is given, the exact number is not on record here.

The target of one experiment is full-length beta-Catenin (Uniprot ID P35222) (Homo sapiens (Human)) (UniProt P35222). As to the kind of experiment: fluorescence polarization competition; displacement of 5FAM-TCF4(10-53) from full-length beta-catenin. Background: In fluorescence polarisation assays a small probe gives low polarisation when free and higher when bound to something large.
Target sequence in this assay (P35222 whole entry, one chain of several): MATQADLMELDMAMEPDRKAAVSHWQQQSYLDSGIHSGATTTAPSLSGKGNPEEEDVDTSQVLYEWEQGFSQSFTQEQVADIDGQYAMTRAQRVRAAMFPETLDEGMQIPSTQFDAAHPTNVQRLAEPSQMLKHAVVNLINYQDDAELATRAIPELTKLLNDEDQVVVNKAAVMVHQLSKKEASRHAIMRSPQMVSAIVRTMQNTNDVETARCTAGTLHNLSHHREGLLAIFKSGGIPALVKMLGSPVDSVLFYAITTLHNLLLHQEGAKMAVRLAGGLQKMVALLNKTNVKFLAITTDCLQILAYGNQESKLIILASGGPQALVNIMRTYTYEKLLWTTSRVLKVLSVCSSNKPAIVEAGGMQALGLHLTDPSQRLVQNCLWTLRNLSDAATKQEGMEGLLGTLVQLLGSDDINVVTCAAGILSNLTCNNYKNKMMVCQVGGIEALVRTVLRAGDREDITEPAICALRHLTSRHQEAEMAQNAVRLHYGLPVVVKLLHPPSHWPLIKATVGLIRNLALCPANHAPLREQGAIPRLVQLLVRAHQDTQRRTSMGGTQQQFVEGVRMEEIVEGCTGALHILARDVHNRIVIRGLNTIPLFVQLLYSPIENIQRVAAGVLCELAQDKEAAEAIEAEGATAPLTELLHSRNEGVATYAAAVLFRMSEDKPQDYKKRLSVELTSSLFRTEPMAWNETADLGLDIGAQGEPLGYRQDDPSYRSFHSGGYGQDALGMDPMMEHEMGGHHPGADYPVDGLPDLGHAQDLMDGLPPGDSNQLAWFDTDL
Molecule Ac-[αAllylPro]D[tBuAla][B5(5)]DDAA[Cha]S[PyrS2″]F[Bta]S-NH2 (staple 1-4, 4-11) [I-1105] came in with a 50% inhibitory concentration (IC50) of 36 nM.

Ac-[αAllylPro]D[tBuAla][B5(5)]DDAAFS[PyrS2″]F[Bta]S-NH2 (staple 1-4, 4-11) [I-1099]: the IC50 worked out at 9 nM.

In turn, Ac-[αAllylPro]D[tBuAla][B5(5)]DDAAFS[PyrS2″][Cha][Bta]S-NH2 (staple 1-4, 4-11) [I-1106] gave a half-inhibitory concentration (IC50) of 23 nM.

Molecule Ac-[αAllylPro]D[tBuAla][B5(5)]DDAAFL[S8][Phe(2-Cl)][Bta][dT]-NH2 (staple 1-4, 4-11) [I-1097] yielded an IC50 of 40 nM.

For another experiment, the target named is B-cat-Halo (beta-catenin HaloTag NanoBRET construct expressed in HEK293 cells) (UniProt P35222). The experiment can be described thus: NanoBRET in HEK293 cells, Bcat-Halo + TCF4-Luc, peptide at 10 uM. On the technique in general: Bioluminescence resonance energy transfer reports proximity on the nanometre scale.
Chain of B-cat-Halo (beta-catenin HaloTag NanoBRET construct expressed in HEK293 cells) (P35222 whole entry): as the sequence (P35222 whole entry, one chain of several) above
Regarding Ac-[αAllylPro]D[tBuAla][B5]DDAAFN[PyrS2][3Thi][Trp(1-Me)]H-NH2 (staple 1-4, 4-11) [I-799], the NanoBRET % inh @ 10 uM is 0.9%.

For Ac-[αAllylPro]D[tBuAla][B5]DDAAFN[PyrS2][3Thi][Trp(5-F)]H-NH2 (staple 1-4, 4-11) [I-800], the NanoBRET % inh @ 10 uM is 8.1%.

Turning to Ac-[αAllylPro]D[tBuAla][B5(5)]DDAAFN[PyrS2][3Thi][Bta]-NH2 (staple 1-4, 4-11) [I-785], the NanoBRET % inh @ 10 uM was determined as 31%.

As to Ac-[αAllylPro]D[tBuAla][B5(5)]DDAAFN[PyrS2][3Thi][1Nal]H-NH2 (staple 1-4, 4-11) [I-789], the NanoBRET % inh @ 10 uM was determined as 9.7%.

A further experiment has as its target full-length beta-Catenin (Uniprot ID P35222) (Homo sapiens (Human)) (UniProt P35222). The experiment can be described thus: fluorescence polarization competition; 10 nM full-length beta-catenin with 10 nM 5FAM-TCF4(10-53) probe as competitor.
Target sequence in this assay (P35222 2-781 limits assumed): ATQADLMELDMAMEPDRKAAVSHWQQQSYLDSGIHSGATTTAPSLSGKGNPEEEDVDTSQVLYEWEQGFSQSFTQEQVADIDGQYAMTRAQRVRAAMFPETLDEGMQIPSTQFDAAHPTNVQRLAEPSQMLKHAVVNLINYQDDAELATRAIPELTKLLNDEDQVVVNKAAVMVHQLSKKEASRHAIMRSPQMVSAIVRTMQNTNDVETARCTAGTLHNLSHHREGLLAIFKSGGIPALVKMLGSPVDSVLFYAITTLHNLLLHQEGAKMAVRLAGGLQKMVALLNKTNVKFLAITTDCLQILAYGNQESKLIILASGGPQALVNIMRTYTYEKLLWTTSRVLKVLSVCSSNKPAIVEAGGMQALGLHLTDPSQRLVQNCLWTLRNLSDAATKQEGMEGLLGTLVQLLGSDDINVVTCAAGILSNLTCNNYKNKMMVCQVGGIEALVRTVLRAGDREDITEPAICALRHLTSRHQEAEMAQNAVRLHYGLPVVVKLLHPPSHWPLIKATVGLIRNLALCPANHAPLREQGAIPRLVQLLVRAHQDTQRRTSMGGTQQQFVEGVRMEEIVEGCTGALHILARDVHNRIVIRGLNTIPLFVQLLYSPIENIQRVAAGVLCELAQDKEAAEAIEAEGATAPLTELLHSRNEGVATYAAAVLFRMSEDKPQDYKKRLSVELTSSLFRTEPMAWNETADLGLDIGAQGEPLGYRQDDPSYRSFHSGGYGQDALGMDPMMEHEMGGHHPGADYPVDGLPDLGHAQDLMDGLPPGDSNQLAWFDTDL
In turn, Ac-[αAllylPro]D[tBuAla][B5]DDAAFN[PyrS2][3Thi][Trp(1-Me)]H-NH2 (staple 1-4, 4-11) [I-799] gave an IC50 of 92 nM.

Molecule Ac-[αAllylPro]D[tBuAla][B5]DDAAFN[PyrS2][3Thi][Trp(5-F)]H-NH2 (staple 1-4, 4-11) [I-800] came in with an IC50 of 79 nM.

The next experiment shares this target. The experiment can be described thus: fluorescence polarization competition; full-length beta-catenin, competitor 5FAM-TCF4(10-53) probe.
Target sequence in this assay (P35222 whole entry, one chain of several): as the sequence (P35222 whole entry, one chain of several) above
Ac-[αAllylPro]DI[B5(4)][SbGlu]EAAFQ[S8]F[Bta]Q-NH2 (staple 1-4, 4-11) [I-676]: the concentration for half-maximal inhibition (IC50) worked out at 5000 nM.

Turning to Ac-[αAllylPro]DI[B5(4)][RbGlu]EAAFQ[S8]F[Bta]Q-NH2 (staple 1-4, 4-11) [I-675], the IC50 was 4520 nM.

A further experiment deals with Bcat-Halo (UniProt P35222). The experiment can be described thus: NanoBRET Abs IC50 in HEK293 cells; Bcat-Halo with TCF4-Luc as competitor.
Chain of Bcat-Halo (P35222 whole entry): as the sequence (P35222 whole entry, one chain of several) above
Ac-[αAllylPro]D[tBuAla][B5(4)]DDAAFN[PyrS2″][Phe(2-Cl)][Bta][Thr(ol)] (staple 1-4, 4-11) [I-1082] displayed an IC50 of 14100 nM.

Molecule Ac-[αAllylPro]D[tBuAla][B5(5)]DDAA[Cha]S[PyrS2″]F[Bta]S-NH2 (staple 1-4, 4-11) [I-1105] yielded a half-maximal inhibitory concentration (IC50) above 20000 nM.

Ac-[αAllylPro]D[tBuAla][B5(5)]DDAAFS[PyrS2″]F[Bta]S-NH2 (staple 1-4, 4-11) [I-1099]: the IC50 was 9000 nM.

The molecule Ac-[αAllylPro]D[tBuAla][B5(5)]DDAAFS[PyrS2″][Cha][Bta]S-NH2 (staple 1-4, 4-11) [I-1106] returned a 50% inhibitory concentration (IC50) above 20000 nM.

With Ac-[αAllylPro]D[tBuAla][B5(5)]DDAAFL[S8][Phe(2-Cl)][Bta][dT]-NH2 (staple 1-4, 4-11) [I-1097], the IC50 was above 20000 nM.

Ac-[αAllylPro]D[tBuAla][B5(4)]DDAAFN[PyrS2″][Phe(2-Cl)][Bta][Phe(ol)] (staple 1-4, 4-11) [I-1083] registered a concentration for half-maximal inhibition (IC50) of 18800 nM.

Another experiment deals with full-length beta-Catenin (Uniprot ID P35222) (Homo sapiens (Human)) (UniProt P35222). The experiment can be described thus: fluorescence polarization competition; peptide titrated against 10 nM full-length beta-catenin + 10 nM 5FAM-TCF4(10-53).
Target sequence in this assay (P35222 2-781 limits assumed): as the sequence (P35222 2-781 limits assumed) above
On to Ac-[αAllylPro]D[tBuAla][B5(4)]DDAAFN[PyrS2″][Phe(2-Cl)][Bta][Thr(ol)] (staple 1-4, 4-11) [I-1082], for which the half-maximal inhibitory concentration (IC50) was 5 nM.

Turning to Ac-[αAllylPro]D[tBuAla][B5(4)]DDAAFN[PyrS2″][Phe(2-Cl)][Bta][Phe(ol)] (staple 1-4, 4-11) [I-1083], the concentration for half-maximal inhibition (IC50) came to 8 nM.

For a further experiment the target is unchanged. As to the kind of experiment: fluorescence polarization competition; peptide displaces 5FAM-TCF4(10-53) from full-length beta-catenin.
Target sequence in this assay (P35222 2-781 limits assumed): as above
In turn, Ac-[αAllylPro]D[tBuAla][B5(5)]DDAAFN[PyrS2][3Thi][Bta]-NH2 (staple 1-4, 4-11) [I-785] showed an IC50 of 6 nM.

Ac-[αAllylPro]D[tBuAla][B5(5)]DDAAFN[PyrS2][3Thi][1Nal]H-NH2 (staple 1-4, 4-11) [I-789] showed an IC50 of 19 nM.

Another experiment shares this target. As to the kind of experiment: fluorescence polarization competition: peptide titrated against 10 nM full-length beta-catenin + 10 nM 5FAM-TCF4(10-53) probe.
Target sequence in this assay (P35222 2-781 limits assumed): as above
With Ac-[αAllylPro]D[tBuAla][B5]DDAAFN[PyrS2][3Thi][Trp(1-Me)]H-NH2 (staple 1-4, 4-11) [I-799], the EC50 came out at 92 nM.

As for Ac-[αAllylPro]D[tBuAla][B5]DDAAFN[PyrS2][3Thi][Trp(5-F)]H-NH2 (staple 1-4, 4-11) [I-800], the EC50 worked out at 79 nM.

Take Ac-[αAllylPro]D[tBuAla][B5(5)]DDAAFN[PyrS2][3Thi][Bta]-NH2 (staple 1-4, 4-11) [I-785]: the EC50 came out at 6 nM.

As to Ac-[αAllylPro]D[tBuAla][B5(5)]DDAAFN[PyrS2][3Thi][1Nal]H-NH2 (staple 1-4, 4-11) [I-789], the EC50 amounted to 19 nM.

The target is the same in a further experiment. As to the kind of experiment: fluorescence polarization competition; full-length beta-catenin + 5FAM-TCF4(10-53) probe as competitor.
Target sequence in this assay (P35222 2-781 limits assumed): as above
As for Ac-[αAllylPro]D[tBuAla][B5(4)]DDAAFN[PyrS2″][Phe(2-Cl)][Bta][Thr(ol)] (staple 1-4, 4-11) [I-1082], the EC50 was found to be 5 nM.

Ac-[αAllylPro]D[tBuAla][B5(5)]DDAA[Cha]S[PyrS2″]F[Bta]S-NH2 (staple 1-4, 4-11) [I-1105]: the EC50 stood at 36 nM.

Take Ac-[αAllylPro]D[tBuAla][B5(5)]DDAAFS[PyrS2″]F[Bta]S-NH2 (staple 1-4, 4-11) [I-1099]: the half-maximal effective concentration (EC50) was 9 nM.

As to Ac-[αAllylPro]D[tBuAla][B5(5)]DDAAFS[PyrS2″][Cha][Bta]S-NH2 (staple 1-4, 4-11) [I-1106], the EC50 amounted to 23 nM.

As for Ac-[αAllylPro]D[tBuAla][B5(5)]DDAAFL[S8][Phe(2-Cl)][Bta][dT]-NH2 (staple 1-4, 4-11) [I-1097], the EC50 was 40 nM.

On to Ac-[αAllylPro]D[tBuAla][B5(4)]DDAAFN[PyrS2″][Phe(2-Cl)][Bta][Phe(ol)] (staple 1-4, 4-11) [I-1083], for which the EC50 is 8 nM.

The target is the same in a further experiment. As to the kind of experiment: fluorescence polarization competition, full-length beta-catenin with 5FAM-TCF4(10-53) probe as competitor.
Target sequence in this assay (P35222 2-781 limits assumed): as above
The molecule Ac-[αAllylPro]DI[B5(4)][SbGlu]EAAFQ[S8]F[Bta]Q-NH2 (staple 1-4, 4-11) [I-676] returned a half-maximal effective concentration (EC50) of 5000 nM.

In turn, Ac-[αAllylPro]DI[B5(4)][RbGlu]EAAFQ[S8]F[Bta]Q-NH2 (staple 1-4, 4-11) [I-675] returned an EC50 of 4520 nM.

Another experiment shares this target. As to the kind of experiment: cell-based or functional assay.
On to Ac-[αAllylPro]D[tBuAla][B5(4)]DDAAFN[PyrS2″][Phe(2-Cl)][Bta][Thr(ol)] (staple 1-4, 4-11) [I-1082], for which the DLD1 reporter assay Abs IC50 amounted to 4800 nM.

The molecule Ac-[αAllylPro]D[tBuAla][B5(5)]DDAAFL[S8][Phe(2-Cl)][Bta][dT]-NH2 (staple 1-4, 4-11) [I-1097] gave a DLD1 reporter assay Abs IC50 above 20000 nM.

As a reminder, the IC50 is the midpoint of a concentration-inhibition curve. In general, EC50 refers to the midpoint of the concentration-response curve.
